Data reported in patent US7001748B2, “Methods of making polyketides using hybrid polyketide synthases” (The Board of Trustees of the Leland Stanford Junior …, priority 1999, dated 2006).
Several values for one entry are separate records, joined by “and”; a condition that tells them apart may be missing. Equal values may be shown once. Read-outs that look alike come from different tables or passages of the source.

How the values were obtained:
(5)M3+TE [1] = biological target: T1, (5)M3+TE (Saccharopolyspora erythraea, UniProt Q03132+Q03133); assay: Tetraketide lactone 2 formation, coincubation of donor module with (5)M3+TE; assay type: biochemical
T1 construct: (5)M3+TE: module 3 with N-terminal linker from module 5; N-terminal interpolypeptide linker of DEBS module 5 (start of DEBS3, Q03133); His6 (C); made in house; host or cells: E. coli BL21(DE3) co-expressing B. subtilis sfp
Experimental: (§1) Assays of M2 and M3+TE contained 1.0 μM M2 and 0.4-4 μM M3+TE, 7 mM NDK, 0.5 mM ^14C-methylmalonyl-CoA (specific activity reduced to 3.4 mCi/mmol), 4 mM NADPH, 440 mM sodium phosphate, 1 mM EDTA, 2.5 mM DTT, and 20% w/v glycerol, pH 7.2, in 70 μL. Assays of M2(4) and (5)M3+TE were identical, except they contained 0.5 μM M2(4), 0.5-5 μM (5)M3+TE, and 0.4 mM ^14C-methylmalonyl-CoA (specific activity reduced to 6.2 mCi/mmol). The concentration of M2(4) was limiting in order to facilitate its saturation with (5)M3+TE. The reactions were prewarmed at 30° C. and initiated by the addition of the methylmalonyl-CoA. As described above, 20 μL aliquots were removed at various time points and processed. Extracts loaded onto TLC plates were separated using either 80% ethyl acetate in hexanes or 5% methanol in dichloromethane, both of which allowed identification of the tetraketide lactone 2 and the triketide lactones 3 and 4.
(§2) For tetraketide formation, the rate of production of tetraketide was recorded for varying concentrations of M3+TE [or (5)M3+TE] at a fixed concentration of M2 [or M2(4)] and saturating concentrations of substrates. By fitting the rate dependence of tetraketide to a saturation curve, the maximal velocity (νmax) of tetraketide production was determined, and was assumed to represent the case where every M2 homodimer was productively associated with an M3+TE homodimer. Thus, the affinity of this protein-protein interaction could be calculated from the rate of tetraketide formation, as represented in Equation 1 ν=kcat[M2-M3] (1) ([M2], [M3], and [M2-M3] refer to the concentrations of M2, unbound M3+TE, and the M2/M3+TE complex, respectively). Since [M2-M3] is related to the KD of M2 and M3+TE as shown in Equation 2, [formula] which can be rearranged to yield Equation 3, [formula] where [M2]0=total concentration of M2, the velocity of tetraketide production can be defined relative to the KD: [formula] where ν=kcat[M2-M3] and νmax=kcat[M2]0. […]

[2] = Kinetic analysis of individual modules with natural diketide (NDK); assay type: biochemical; conditions: NDK as substrate, 30° C., saturating NADPH and methylmalonyl-CoA
Experimental: In Vitro Polyketide Production. Assays of individual modules contained 1.0 μM protein, 1-10 mM N-acetylcysteamine thioester of the “natural” (2S,3R)-2-methyl-3-hydroxypentanoic acid diketide (NDK) (1), 4 mM NADPH, 440 mM sodium phosphate, 1 mM EDTA, 2.5 mM dithiothreitol (DTT), and 20% w/v glycerol, pH 7.2, in 80 μL. Reactions with M2 or M2(4) included 0.3 mM ^14C-methylmalonyl-CoA (specific activity adjusted to 10.4 mCi/mmol), and those with M3+TE or (5)M3+TE included 0.5 mM ^14C-methylmalonyl-CoA (specific activity reduced to 1.1 mCi/mmol). [M2(4) refers to a derivative of M2 in which the C-terminal linker has been replaced with its counterpart from module 4, whereas (5)M3 refers to a derivative of M3 in which the N-terminal linker has been replaced with its counterpart from module 5 (see FIG. 4).] […] Product formation was quantified by comparison with standards of the labeled methylmalonyl-CoA. […]
Kinetic Analysis. For individual modules, the steady-state turnover number was determined from the time course of triketide formation, normalized to the concentration of protein. The dependence of the rate on substrate concentration was measured by varying the concentration of NDK while maintaining saturating levels of NADPH and methylmalonyl-CoA.

M3+TE [3] = biological target: T2, M3+TE (Saccharopolyspora erythraea, UniProt Q03132+Q03133); assay: Tetraketide lactone 2 formation, coincubation of donor module with M3+TE; assay type: biochemical
T2 construct: encodes module 3 of DEBS (M3) with its own N-terminal linker and with the thioesterase fused to the C-terminus; natural N-terminal interpolypeptide linker of module 3 (start of DEBS2, ahead of the Module 3 feature); His6 (C); made in house; host or cells: E. coli BL21(DE3) co-expressing B. subtilis sfp
Experimental: as §1, §2

M3+TE [4] = biological target: T2, M3+TE; conditions: cited from earlier work
[5] = test system: (5)M2+TE, (5)M5+TE, and (5)M6+TE; conditions: Wu et al. 2000; cited from earlier work
[6] = Cell-free synthesis of triketides from diketide thioester by single module constructs; assay type: biochemical; conditions: purified protein, after 30 minutes
Experimental: (§3) A cell-free system, tested for the ability to convert the cysteamine thioester of 2S,3R-2-methyl-3-hydroxypentanoic acid (compound 2 in FIG. 2), consisted of 0.5-10 mM concentration of the thioester, 2.5 mM ^14C-labeled methylmalonyl CoA and 100 pmoles of purified protein prepared in Example 1 in a 100 μl reaction. In some cases, 1 mM of NADPH was added; this was done in assay mixtures containing (M2+TE), (M5+TE) and (M6+TE) proteins. The protein was, in each case, a single module of the DEBS PKS fused to the thioesterase (TE) termination region of module 6.
(§4) The reaction mixtures were quenched and extracted by ethyl acetate and separated by thin-layer chromatography (TLC) to discern the formation of the triketide ketolactone 3 and triketide lactone 4 (both shown in FIG. 2) after 30 minutes.

[7] = Kinetic constants kcat and KM for converting diketide to triketide (cell-free system); assay type: biochemical
Experimental: as §3, §4
The various constructs which are successful in converting diketide to triketide were then evaluated for the kinetic constants kcat and KM. […] This is evidently due to the absence of beta-carbonyl modifying enzymes in module 3 as verified by the fact that removal of NADPH, (which is required for the activity of such modules) from the reaction mixture of (N-ERL-M6+TE) also results in a lowering of the kcat.

(3)M3+TE = biological target: T3, (3)M3+TE (Saccharopolyspora erythraea, UniProt Q03132+Q03133); conditions: previously shown; cited from earlier work
T3 construct: encodes module 3 of DEBS (M3) with its own N-terminal linker and with the thioesterase fused to the C-terminus; natural N-terminal interpolypeptide linker of module 3 (start of DEBS2, ahead of the Module 3 feature); His6 (C); made in house; host or cells: E. coli BL21(DE3) co-expressing B. subtilis sfp

(5)M3+TE [8] = biological target: T1, (5)M3+TE; conditions: previously shown; cited from earlier work
module 5+TE = biological target: T4, module 5+TE (Saccharopolyspora erythraea, UniProt Q03133); conditions: diffusive loading, shown earlier; cited from earlier work
T4 construct: a single module of the DEBS PKS fused to the thioesterase (TE) termination region of module 6; thioesterase (TE) domain of DEBS (end of the same DEBS3 polypeptide); made in house; host or cells: E. coli BL21(DE3) co-expressing B. subtilis sfp

Molecule: M2: module 2 of DEBS, thioesterase replaced with the natural C-terminal linker for module 2
- highest rate constants that could be measured, tetraketide lactone 2 ((5)M3+TE [1]; mismatched linker pair): 0.02 to 0.03 min⁻¹
- kcat [2]: ~0.00033 s⁻¹
- Kd (M3+TE [3]; estimated from saturation curve): 1100 ± 100 nM
- kcat (maximum / saturating rate constant) of tetraketide lactone 2 formation (M3+TE [3]; fixed donor, variable M3+TE, 7 mM NDK): 0.0045 ± 0.00017 s⁻¹ and 0.0045 s⁻¹

Molecule: DEBS1: first protein of 6-deoxyerythronolide B synthase, loading module and extender modules 1 and 2
- Kd (M3+TE [4]; Gokhale et al. 1999, read-out: KD, previously reported value): 2600 nM
- rate of formation of the same tetraketide, earlier measurement (M3+TE [4]; Pieper et al. 1997): 0.23 min^−

Molecule: M2(4): derivative of M2 containing the C-terminal linker of DEBS module 4
- kcat (saturating rate) of tetraketide lactone 2 formation ((5)M3+TE [1]; fixed donor, variable (5)M3+TE): 0.0123 ± 0.001 s⁻¹ and 0.0123 s⁻¹
- Kd ((5)M3+TE [1]; from saturation curve): 2100 ± 400 nM
- kcat [2]: ~0.0005 s⁻¹
- highest rate constants that could be measured, tetraketide lactone 2 (M3+TE [3]; mismatched linker pair): 0.02 to 0.03 min⁻¹

Molecule: CCC(O)C(C)C(=O)SCCNC(C)=O (stereo not drawn) [2d]
- incorporation of NAC thioester (qualitative) [5]: no turnover

Molecule: ERL − M6 + TE: module 6+TE carrying the upstream 39 amino acids (N-ERL) from module 5
- Triketide Formed [6]: Yes
- Triketide Formed ([6]; listed as (N-ERL-M6+TE)): able to produce the triketide product
- Km ([7]; (− NADPH)): 4.1 ± 0.4 mM
- kcat × 100 ([7]; (− NADPH)): 4.5 ± 0.7 min^−1
- Km ([7]; diketide to triketide): 4.3 ± 0.4 mM
- kcat × 100 ([7]; diketide to triketide): 9.5 ± 0.6 min^−1

Molecule: ERL − M2 + TE: module 2+TE carrying the upstream 39 amino acids (N-ERL) from module 5
- Triketide Formed [6]: Yes
- Triketide Formed ([6]; listed as (N-ERL-M2+TE)): able to produce the triketide product
- Km ([7]; diketide to triketide): 4.6 ± 0.4 mM
- kcat × 100 ([7]; diketide to triketide): 8 ± 0.6 min^−1

Molecule: CCC(O)C(C)C(=O)SCCNC(C)=O (stereo not drawn) [2c]
- incorporation of NAC thioester (qualitative) [5]: no turnover

Molecule: CCC(O)C(C)C(=O)SCCNC(C)=O (stereo not drawn) [2b]
- incorporation of NAC thioester (qualitative) ((3)M3+TE): readily incorporated and elongated
- incorporation of NAC thioester (qualitative) ((5)M3+TE [8]): readily incorporated and elongated
- kcat (elongation rate constant), NAC thioester substrate (module 5+TE): 0.00033 s⁻¹
- incorporation of NAC thioester (qualitative) [5]: substrates for the three modules

Molecule: M5 + TE: single module 5 of DEBS fused to the thioesterase (TE) domain
- Triketide Formed [6]: Yes
- Triketide Formed ([6]; listed as (M5+TE)): expected triketides were formed
- Km ([7]; diketide to triketide): 4.7 ± 0.4 mM
- kcat × 100 ([7]; diketide to triketide): 7.5 ± 0.7 min^−1
